Reference: paper PMC3686747

Key:
[1] = target: heat shock protein 60 (Hsp60), bovine brain (bovine (endogenous in bovine brain)) (UniProt P31081); assay: co-IP; active N-SMase fraction (Mono S or Superose 12) from bovine brain, holding both proteins together; anti-Hsp60 or anti-N-SMase2 antibody on Protein A Sepharose, 4 h at 4°C; N-SMase activity of supernatants and immunoprecipitates, immunoblot; with indicated concentrations of Triton X-100 in one panel
[2] = target: heat shock protein 60 (Hsp60), bovine brain (bovine (endogenous in bovine brain)) (UniProt P31081); assay: co-IP; Mono S active fraction from bovine brain, anti-Hsp60 antibody; N-SMase activity recovered in the immunoprecipitates after resuspension in IP buffer (data not shown)

Sequence of UniProt P31081 (P31081 27-573): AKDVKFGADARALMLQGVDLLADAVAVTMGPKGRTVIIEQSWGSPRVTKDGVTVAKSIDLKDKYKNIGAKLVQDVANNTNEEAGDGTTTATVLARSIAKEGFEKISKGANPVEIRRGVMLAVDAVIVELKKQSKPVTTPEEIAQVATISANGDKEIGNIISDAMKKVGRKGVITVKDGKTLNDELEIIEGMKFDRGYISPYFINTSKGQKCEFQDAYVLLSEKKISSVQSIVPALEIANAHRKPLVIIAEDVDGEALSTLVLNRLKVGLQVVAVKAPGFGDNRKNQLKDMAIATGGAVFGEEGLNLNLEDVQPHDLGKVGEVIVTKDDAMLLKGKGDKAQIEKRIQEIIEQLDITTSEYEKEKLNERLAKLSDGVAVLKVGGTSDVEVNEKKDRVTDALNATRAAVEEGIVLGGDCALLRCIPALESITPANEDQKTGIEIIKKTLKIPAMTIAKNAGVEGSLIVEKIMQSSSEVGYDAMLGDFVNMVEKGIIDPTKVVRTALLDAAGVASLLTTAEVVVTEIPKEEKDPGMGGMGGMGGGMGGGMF

percent of N-SMase activity precipitated by anti-Hsp60 antibody [1]: 20% | percent of total N-SMase activity recovered in the anti-Hsp60 immunoprecipitates [2]: 10%
Substance: neutral sphingomyelinase 2 (N-SMase2), bovine brain, purified as N-SMase ε (enzyme)
